First the molecules themselves.
T1: human glycophorin A in the red blood cell membrane (human, UniProt P02724 20-150)
T1 construct: whole, on cells; used for intact RBC, isolated RBC membranes and transfected cells; the assay field tells which; also called GPA; hGPA
T1 sequence (looked up): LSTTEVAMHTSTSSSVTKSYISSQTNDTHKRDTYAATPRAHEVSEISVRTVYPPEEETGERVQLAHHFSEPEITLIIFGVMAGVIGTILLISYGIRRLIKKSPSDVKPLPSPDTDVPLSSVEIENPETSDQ

T2: recombinant human GPA ectodomain (human, UniProt P02724 20-91)
T2 construct: also called recombinant hGPA ECD; recGPA
T2 sequence: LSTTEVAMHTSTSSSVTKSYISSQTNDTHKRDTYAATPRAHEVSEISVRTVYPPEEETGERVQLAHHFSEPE

T3: purified human glycophorin A protein (Sigma, cat # G5017) (human, UniProt P02724 20-150)
T3 construct: mature; also called Sigma hGPA; Sigma GPA
T3 sequence (looked up): T1 sequence (looked up)

B1: TPP-5316 (Fab, V domains shown)
VH: QVQLVQSGAEVKKPGASVKVSCKASGYTFTTYTIHWVRQAPGQGLEWIGYINPSSDYTRYNPKFKDRVTLTTDKSTSTAYMELRSLRSDDTAVYYCQTGTRDYWGQGTTVTVSS
VL: DIQLTQSPSFLSASVGDRVTITCSAASSVSYIYWFQQKPGKAPKLLIYSTSTLPSGVPSRFSGSGSGTEYTLTISSLQPEDFATYYCHQRNSFPFTFGQGTKLEIKR
notes: also called VH: (E1Q)
B2: TPP-5320 (Fab, V domains shown)
VH: B1 VH with Q1E, I48M
VL: B1 VL
notes: also called VH: (I48M)
B3: TPP-5319 (Fab, V domains shown)
VH: B1 VH with Q1E, I34M
VL: B1 VL
notes: also called VH: (I34M)
B4: TPP-5328 (Fab, V domains shown)
VH: B1 VH with Q1E, K65Q
VL: B1 VL
notes: also called VH: (K65Q)
B5: TPP-5334 (Fab, V domains shown)
VH: B1 VH with Q1E, D89E
VL: B1 VL
notes: also called VH: (D89E)
B6: TPP-5335 (Fab, V domains shown)
VH: B1 VH with Q1E, Q97A
VL: B1 VL
notes: also called VH: (Q97A)
B7: TPP-5347 (Fab, V domains shown)
VH: B1 VH with Q1E
VL: B1 VL with F35Y
notes: also called VL: (F35Y)
B8: TPP-5326 (Fab, V domains shown)
VH: B1 VH with Q1E, N61A
VL: B1 VL
notes: also called VH: (N61A)
B9: TPP-5352 (Fab, V domains shown)
VH: B1 VH with Q1E
VL: B1 VL with H88Q
notes: also called VL: (H88Q)
B10: TPP-5333 (Fab, V domains shown)
VH: B1 VH with Q1E, R84S
VL: B1 VL
notes: also called VH: (R84S)
B11: TPP-5327 (Fab, V domains shown)
VH: B1 VH with Q1E, P62Q
VL: B1 VL
notes: also called VH: (P62Q)
B12: TPP-5323 (Fab, V domains shown)
VH: B1 VH with Q1E, D56G
VL: B1 VL
notes: also called VH: (D56G)
B13: TPP-5329 (Fab, V domains shown)
VH: B1 VH with Q1E, D66G
VL: B1 VL
notes: also called VH: (D66G)
B14: TPP-5324 (Fab, V domains shown)
VH: B1 VH with Q1E, Y57S
VL: B1 VL
notes: also called VH: (Y57S)
B15: TPP-5346 (Fab, V domains shown)
VH: B1 VH with Q1E
VL: B1 VL with Y33A
notes: also called VL: (Y33A)
B16: TPP-5343 (Fab, V domains shown)
VH: B1 VH with Q1E
VL: B1 VL with S28G
notes: also called VL: (S28G)
B17: TPP-5351 (Fab, V domains shown)
VH: B1 VH with Q1E
VL: B1 VL with Y70F
notes: also called VL: (Y70F)
B18: TPP-5342 (Fab, V domains shown)
VH: B1 VH with Q1E
VL: B1 VL with S27Q
notes: also called VL: (S27Q)
B19: TPP-5349 (Fab, V domains shown)
VH: B1 VH with Q1E
VL: B1 VL with T50A
notes: also called VL: (T50A)
B20: TPP-5344 (Fab, V domains shown)
VH: B1 VH with Q1E
VL: B1 VL with V29I
notes: also called VL: (V29I)
B21: TPP-5332 (Fab, V domains shown)
VH: B1 VH with Q1E, K74T
VL: B1 VL
notes: also called VH: (K74T)
B22: TPP-5330 (Fab, V domains shown)
VH: B1 VH with Q1E, L70M
VL: B1 VL
notes: also called VH: (L70M)
B23: TPP-5354 (Fab, V domains shown)
VH: B1 VH with Q1E
VL: B1 VL with F93Y
notes: also called VL: (F93Y)
B24: TPP-5322 (Fab, V domains shown)
VH: B1 VH with Q1E, S55G
VL: B1 VL
notes: also called VH: (S55G)
B25: TPP-5345 (Fab, V domains shown)
VH: B1 VH with Q1E
VL: B1 VL with I32L
notes: also called VL: (I32L)
B26: TPP-5317 (Fab, V domains shown)
VH: B1 VH with Q1E, T31S
VL: B1 VL
notes: also called VH: (T31S)
B27: TPP-5331 (Fab, V domains shown)
VH: B1 VH with Q1E, T72R
VL: B1 VL
notes: also called VH: (T72R)
B28: TPP-5353 (Fab, V domains shown)
VH: B1 VH with Q1E
VL: B1 VL with R90L
notes: also called VL: (R90L)

We go through 28 molecules from US20190359687A1 (Bayer, published 2019).

Residue numbers refer to the chain shown, from its start. In names and notes the source's numbering stands.

The target in the first experiment is T1, human glycophorin A in the red blood …. Kind of experiment: ELISA, human RBC membranes.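 Note: antibodies bound to isolated human red blood cell membrane ghosts coated on 96-well plates, tested 1.5 h at room temperature, bound antibody quantified with a detection antibody.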
In the case of B1, the “binding by ELISA relative to parental” value worked out at 1.16.

B2: the “binding by ELISA relative to parental” value came to 0.99.

B3: the “binding by ELISA relative to parental” value came out at 0.85.

With B4, the “binding by ELISA relative to parental” value came to 0.61.

Regarding B5, the “binding by ELISA relative to parental” value is 0.72.

In the case of B6, the “binding by ELISA relative to parental” value was 0.65.

For the molecule B7, the “binding by ELISA relative to parental” value came to 0.43.

In the case of B8, the “binding by ELISA relative to parental” value came to 0.45.

On to B9, for which the “binding by ELISA relative to parental” value was 0.34.

For the molecule B10, the “binding by ELISA relative to parental” value came to 0.59.

As for B11, the “binding by ELISA relative to parental” value worked out at 0.74.

For the molecule B12, the “binding by ELISA relative to parental” value was found to be 1.72.

B13: the “binding by ELISA relative to parental” value is 1.

With B14, the “binding by ELISA relative to parental” value was 0.41.

With B15, the “binding by ELISA relative to parental” value amounted to 0.42.

Turning to B16, the “binding by ELISA relative to parental” value was found to be 0.71.

Turning to B17, the “binding by ELISA relative to parental” value worked out at 0.71.

Regarding B18, the “binding by ELISA relative to parental” value was 0.75.

Regarding B19, the “binding by ELISA relative to parental” value was 0.27.

As to B20, the “binding by ELISA relative to parental” value was determined as 0.6.

As for B21, the “binding by ELISA relative to parental” value was 0.58.

In the case of B22, the “binding by ELISA relative to parental” value was 0.91.

As for B23, the “binding by ELISA relative to parental” value amounted to 0.35.

B24: the “binding by ELISA relative to parental” value was found to be 0.82.

Consider B25, for which the “binding by ELISA relative to parental” value was 0.43.

For the molecule B26, the “binding by ELISA relative to parental” value was found to be 0.68.

Regarding B27, the “binding by ELISA relative to parental” value worked out at 0.96.

Take B28: the “binding by ELISA relative to parental” value was determined as 0.2.

In another experiment the target is T2, recombinant human GPA ectodomain. Briefly: ELISA, rec hGPA ectodomain.
B1: the “binding by ELISA relative to parental” value came to 1.29.

B2: the “binding by ELISA relative to parental” value stood at 1.35.

As to B3, the “binding by ELISA relative to parental” value was 1.08.

B4: the “binding by ELISA relative to parental” value turned out to be 0.91.

Take B5: the “binding by ELISA relative to parental” value was found to be 0.89.

B6: the “binding by ELISA relative to parental” value turned out to be 0.83.

For the molecule B7, the “binding by ELISA relative to parental” value stood at 0.35.

On to B8, for which the “binding by ELISA relative to parental” value was 0.53.

On to B9, for which the “binding by ELISA relative to parental” value is 0.26.

With B10, the “binding by ELISA relative to parental” value was found to be 0.97.

For B11, the “binding by ELISA relative to parental” value was 0.99.

Take B12: the “binding by ELISA relative to parental” value is 1.64.

On to B13, for which the “binding by ELISA relative to parental” value worked out at 1.12.

As for B14, the “binding by ELISA relative to parental” value amounted to 0.34.

As to B15, the “binding by ELISA relative to parental” value stood at 0.03.

B16: the “binding by ELISA relative to parental” value was 0.97.

In the case of B17, the “binding by ELISA relative to parental” value turned out to be 0.78.

On to B18, for which the “binding by ELISA relative to parental” value came out at 0.95.

As for B20, the “binding by ELISA relative to parental” value is 0.77.

With B21, the “binding by ELISA relative to parental” value worked out at 0.87.

On to B22, for which the “binding by ELISA relative to parental” value was 1.29.

Regarding B23, the “binding by ELISA relative to parental” value was found to be 0.17.

In the case of B24, the “binding by ELISA relative to parental” value turned out to be 0.91.

On to B25, for which the “binding by ELISA relative to parental” value is 0.48.

In the case of B26, the “binding by ELISA relative to parental” value was 1.34.

As for B27, the “binding by ELISA relative to parental” value is 1.07.

For B28, the “binding by ELISA relative to parental” value came out at 0.04.

The next experiment concerns the target T3, purified human glycophorin A protein …. Briefly: ELISA, native hGPA.
In the case of B1, the “binding by ELISA relative to parental” value stood at 1.33.

As to B2, the “binding by ELISA relative to parental” value was 1.24.

For B3, the “binding by ELISA relative to parental” value turned out to be 0.99.

For B4, the “binding by ELISA relative to parental” value was 0.89.

B5: the “binding by ELISA relative to parental” value turned out to be 0.8.

As for B6, the “binding by ELISA relative to parental” value came to 0.77.

On to B7, for which the “binding by ELISA relative to parental” value came to 0.52.

With B8, the “binding by ELISA relative to parental” value is 0.56.

For the molecule B9, the “binding by ELISA relative to parental” value amounted to 0.36.

With B10, the “binding by ELISA relative to parental” value amounted to 0.92.

In the case of B11, the “binding by ELISA relative to parental” value came to 0.98.

For the molecule B12, the “binding by ELISA relative to parental” value is 1.49.

For B13, the “binding by ELISA relative to parental” value amounted to 1.02.

Take B14: the “binding by ELISA relative to parental” value came to 0.53.

Consider B16, for which the “binding by ELISA relative to parental” value was 0.95.

On to B17, for which the “binding by ELISA relative to parental” value turned out to be 0.71.

For the molecule B18, the “binding by ELISA relative to parental” value is 0.91.

As for B19, the “binding by ELISA relative to parental” value stood at 0.12.

For the molecule B20, the “binding by ELISA relative to parental” value stood at 0.84.

For B21, the “binding by ELISA relative to parental” value worked out at 0.83.

Regarding B22, the “binding by ELISA relative to parental” value was 1.2.

As to B23, the “binding by ELISA relative to parental” value was determined as 0.33.

As to B24, the “binding by ELISA relative to parental” value worked out at 0.86.

In the case of B25, the “binding by ELISA relative to parental” value came to 0.6.

As for B26, the “binding by ELISA relative to parental” value was found to be 1.36.

As for B27, the “binding by ELISA relative to parental” value came to 1.11.
